From paper PMC3839629

Key:
[1] = target: DGK_(Cysless), cysless His6-tagged diacylglycerol kinase from Escherichia coli (Escherichia coli); assay: anion exchange chromatography of subunit exchange
[2] = target: E5-DGK_(Cysless), cysless His6-tagged diacylglycerol kinase with a pentaglutamate tag (Escherichia coli); assay: anion exchange chromatography of subunit exchange

| Substance | half-life of subunit exchange [1] [weeks] | percent of the expected final subunit exchange after 7 days [1] [%] | ratio of the mixed peaks to the pure peaks after 7 days [1] | half-life of subunit exchange [2] [weeks] |
| --- | --- | --- | --- | --- |
| DGK_(Cysless), cysless His6-tagged diacylglycerol kinase from Escherichia coli (enzyme) | > 5 | – | – | – |
| E5-DGK_(Cysless), cysless His6-tagged diacylglycerol kinase with a pentaglutamate tag (enzyme) | – | 10 | 0.3 | > 5 |
